“And” between values parts separate entries of the source, which are not always exact repeats. Identical values can stand only once. Square brackets hold non-standard residues; d marks the D form. Ends that are not written are not given here. pY = N[C@@H](Cc1ccc(OP(=O)(O)O)cc1)C(=O)O
What was measured:
GST-Fyn-SH3-SH2 [1] = target: T1, GST-Fyn-SH3-SH2 (fluorescein on the N-terminus; phosphotyrosine (pY) at position 7 of the printed letters); experiment: high-speed capillary electrophoresis
GST-Fyn-SH3-SH2 [2] = target: T1, GST-Fyn-SH3-SH2; experiment: fluorescence polarisation
GST-Fyn-SH3-SH2 [3] = target: T1, GST-Fyn-SH3-SH2; experiment: high-speed capillary electrophoresis; remark: listed apart in the source

fluorescein-EEEEPQ[pY]EEIPIYL [Fluor-Fyn peptide (fluorescein-EEEEPQpYEEIPIYL)]
stoichiometry N (GST-Fyn-SH3-SH2 [1]): 0.5 peptide per protein (printed 2:1 protein: peptide, complex 1) and 1 peptide per protein (printed 2:2 protein: peptide, complex 2) | t1/2, two component decay, first component (GST-Fyn-SH3-SH2 [2]): 3.3 s | t1/2, two component decay, second component (GST-Fyn-SH3-SH2 [2]): 59.5 s | t1/2 of the complex, single exponential decay (GST-Fyn-SH3-SH2 [2]): 21.2 ± 1.3 s | t1/2 of complex 1 (GST-Fyn-SH3-SH2 [3]): 22 s | t1/2 of complex 2 (GST-Fyn-SH3-SH2 [3]): 58.8 s

— paper PMC2763920 (Electrophoresis, 2009)
